This data set addresses NFATc2 full length;cJun full length (;, UniProt Q13469-2;P05412 1-921;1-331, |). Nature of the data set: DNA pull-down, Western blot. (In general: A western blot detects proteins with antibodies after separation by electrophoresis.)

Here are results for one molecule from PMC3686915.

Take GATAATATTTTTCCAGAATTACACAAATTCTGGAAAAATATTATC (structured_DNA, 5' biotin) [-45 NFAT hairpin]: the binding result is “binds”.
